What was measured:
[1] = target: T1, recombinant human IL-27 (human, UniProt Q14213 21-229; Q8NEV9 29-243); assay: binding kinetics, SRF388 at 1 ug/mL, IL-27 as analyte at 0 to 5.0 ug/mL (instrument not named)
T1 construct: Bought from R&D Systems (Cat. 2526-IL); also called hIL-27; rhIL-27
T1 sequence 1: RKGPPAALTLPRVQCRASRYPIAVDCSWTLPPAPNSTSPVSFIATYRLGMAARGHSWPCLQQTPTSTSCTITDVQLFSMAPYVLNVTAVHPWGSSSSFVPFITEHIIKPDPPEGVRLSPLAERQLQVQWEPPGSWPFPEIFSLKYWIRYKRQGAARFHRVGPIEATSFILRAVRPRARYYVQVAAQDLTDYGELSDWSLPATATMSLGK
T1 sequence 2: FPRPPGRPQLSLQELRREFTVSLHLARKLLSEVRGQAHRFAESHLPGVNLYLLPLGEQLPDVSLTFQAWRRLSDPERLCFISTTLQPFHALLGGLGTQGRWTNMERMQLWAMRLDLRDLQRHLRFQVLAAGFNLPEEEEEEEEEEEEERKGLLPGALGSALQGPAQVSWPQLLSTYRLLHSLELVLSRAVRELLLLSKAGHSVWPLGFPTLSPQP
Protocol: The association and dissociation of recombinant human IL-27 at concentrations ranging from 0 to 5.0 μg/mL with an SRF388 concentration of 1 μg/mL were determined.

[2] = target: T1, recombinant human IL-27; assay: cell-based or functional assay
[3] = target: T2, recombinant mouse IL-27 (mouse, UniProt O35228 19-228; Q8K3I6 29-234, limits assumed); assay: cell-based or functional assay
T2 sequence (looked up) 1: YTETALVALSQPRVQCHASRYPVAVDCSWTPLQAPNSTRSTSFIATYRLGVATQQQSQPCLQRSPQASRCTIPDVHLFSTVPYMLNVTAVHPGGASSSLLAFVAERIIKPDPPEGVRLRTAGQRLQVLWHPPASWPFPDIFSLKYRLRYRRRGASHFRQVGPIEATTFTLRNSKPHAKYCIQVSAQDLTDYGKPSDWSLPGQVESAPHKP
T2 sequence (looked up) 2: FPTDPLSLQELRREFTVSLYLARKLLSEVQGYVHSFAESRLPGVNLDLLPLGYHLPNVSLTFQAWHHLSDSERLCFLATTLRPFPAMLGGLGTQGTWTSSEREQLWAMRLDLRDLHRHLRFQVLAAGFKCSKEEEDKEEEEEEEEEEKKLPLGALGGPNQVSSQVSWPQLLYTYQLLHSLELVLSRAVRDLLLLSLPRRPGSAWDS

[4] = target: T3, recombinant rat IL-27 (rat, UniProt D3ZPW3 29-234; M0RD76 19-228); assay: cell-based or functional assay
T3 sequence (alpha): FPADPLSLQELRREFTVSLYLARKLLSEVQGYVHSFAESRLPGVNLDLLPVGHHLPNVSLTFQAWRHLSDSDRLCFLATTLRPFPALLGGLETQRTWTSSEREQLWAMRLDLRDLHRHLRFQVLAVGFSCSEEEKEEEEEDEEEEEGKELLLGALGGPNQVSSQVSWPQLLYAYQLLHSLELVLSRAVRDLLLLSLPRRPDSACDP
T3 sequence (beta): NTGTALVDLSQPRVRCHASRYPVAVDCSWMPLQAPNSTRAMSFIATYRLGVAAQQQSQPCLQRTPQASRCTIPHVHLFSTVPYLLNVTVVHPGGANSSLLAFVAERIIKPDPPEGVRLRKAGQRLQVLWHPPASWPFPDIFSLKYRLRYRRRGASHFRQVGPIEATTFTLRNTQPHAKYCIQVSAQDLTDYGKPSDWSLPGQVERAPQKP

[5] = target: T4, recombinant cynomolgus monkey IL-27 (cynomolgus monkey, UniProt A0A2K5WPB7 36-244; A0A2K5UBM6 29-244); assay: cell-based or functional assay
T4 sequence 1: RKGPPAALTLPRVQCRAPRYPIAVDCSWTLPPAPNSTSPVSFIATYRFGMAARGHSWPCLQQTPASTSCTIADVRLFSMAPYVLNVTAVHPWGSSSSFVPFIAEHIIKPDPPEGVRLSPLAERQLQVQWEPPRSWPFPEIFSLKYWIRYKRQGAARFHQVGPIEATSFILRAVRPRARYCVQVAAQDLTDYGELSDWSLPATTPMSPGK
T4 sequence 2: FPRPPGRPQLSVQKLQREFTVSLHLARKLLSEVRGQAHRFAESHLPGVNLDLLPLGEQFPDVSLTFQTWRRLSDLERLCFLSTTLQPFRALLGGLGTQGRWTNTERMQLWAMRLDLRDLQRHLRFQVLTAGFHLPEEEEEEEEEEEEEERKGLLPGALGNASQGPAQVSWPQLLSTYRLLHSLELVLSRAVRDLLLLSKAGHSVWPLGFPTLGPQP

[6] = target: T2, recombinant mouse IL-27; assay: binding kinetics, SRF388 with IL-27 as analyte (instrument not named)
[7] = target: T3, recombinant rat IL-27; assay: as above
[8] = target: T4, recombinant cynomolgus monkey IL-27; assay: as above
[9] = target: T1, recombinant human IL-27; assay: cell-based or functional assay; remark: listed apart in the source
[10] = target: T1, recombinant human IL-27; assay: column 'Affinity hIL-27 (M)', property (i); method not given, paragraph 885 names SPR (BIACORE 2000)
[11] = target: T1, recombinant human IL-27; assay: SPR (BIACORE 2000) as the paragraph says; values in FIG. 9
[12] = target: T2, recombinant mouse IL-27; assay: column 'Affinity mIL-27 (M)'; method not given
[13] = target: T5, EBI3 subunit of IL-27 (Homo sapiens (Human), UniProt Q14213 21-229, limits assumed); assay: biochemical affinity and specificity studies
T5 construct: the reagent used in the specificity studies is not described
T5 sequence: T1 sequence 1

[14] = target: T6, p28 subunit of IL-27 (Homo sapiens (Human), UniProt Q8NEV9 29-243, limits assumed); assay: biochemical affinity and specificity studies
T6 construct: the reagent used in the specificity studies is not described; also called IL-27p28
T6 sequence: T1 sequence 2

Kd [1]: 0.00386 nM
koff [1]: 1.97e-06 s⁻¹
kon [1]: 510000 M⁻¹ s⁻¹
Average IC50, pSTAT1 in peripheral blood T cells, human whole blood [2]: 78.4 ng/mL
Average IC50, pSTAT1 in peripheral blood T cells, mouse whole blood [3]: 1720 ng/mL
Average IC50, pSTAT1 in peripheral blood T cells, rat whole blood [4]: 273 ng/mL
Average IC50, pSTAT1 in peripheral blood T cells, cynomolgus monkey whole blood [5]: 118 ng/mL
Kd [6]: 4.43 nM
koff [6]: 0.000244 s⁻¹
kon [6]: 55000 M⁻¹ s⁻¹
Kd [7]: 0.0809 nM
koff [7]: 0.000189 s⁻¹
kon [7]: 2.34e+06 M⁻¹ s⁻¹
Kd [8]: 0.0374 nM
koff [8]: 1.19e-05 s⁻¹
kon [8]: 318000 M⁻¹ s⁻¹
IC50 of inhibition of phosphorylation of STAT1 in HUT-78 cells [9]: 0.095 µg/mL
IC50 of inhibition of phosphorylation of STAT1 in U937 cells [9]: 0.096 µg/mL
IC50 of inhibition of phosphorylation of STAT1 in pooled human PBMCs [9]: 0.0583 µg/mL
Kd [10]: 0.0013 nM
Kd [11]: ≤ 15 nM
Kd [12]: 0.594 nM
binding result [13]: no binding
binding result [14]: binds
B1: SRF388 (antibody, V domains shown)
VH: EVQLVESGGGLVKPGGSLRLSCAASGFTFRSYGMNWVRQAPGKGLEWVSGISSSGSYIYYADSVKGRFTISRDNAKNSLYLQMNSLRAEDTAVYYCARDGGRTSYTATAHNWFDPWGQGTLVTVSS
VL: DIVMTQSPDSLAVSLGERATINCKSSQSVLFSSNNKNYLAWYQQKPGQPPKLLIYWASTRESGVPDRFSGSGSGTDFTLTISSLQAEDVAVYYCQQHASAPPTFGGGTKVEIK
notes: also called SRF388-A; SRF388-B
